According to publication PMC4493278 (Cell Research, 2015):
Changes are numbered by the printed parent chain. In names and notes the source's numbering stands. Several values for one entry are separate records, joined by “and”; a condition that tells them apart may be missing. Identical values can stand only once. Like-named read-outs stand apart in the source and are kept apart here. Values belong to the molecule of their own block, whether it stands above or below them.

Columns and labels:
Moesin FERM domain = Moesin FERM domain (UniProt P26038)
[1] = target: T1, Merlin FERM domain (Merlin-FERM, residues 1-320) (human, UniProt P35240 1-320)
T1 sequence (looked up): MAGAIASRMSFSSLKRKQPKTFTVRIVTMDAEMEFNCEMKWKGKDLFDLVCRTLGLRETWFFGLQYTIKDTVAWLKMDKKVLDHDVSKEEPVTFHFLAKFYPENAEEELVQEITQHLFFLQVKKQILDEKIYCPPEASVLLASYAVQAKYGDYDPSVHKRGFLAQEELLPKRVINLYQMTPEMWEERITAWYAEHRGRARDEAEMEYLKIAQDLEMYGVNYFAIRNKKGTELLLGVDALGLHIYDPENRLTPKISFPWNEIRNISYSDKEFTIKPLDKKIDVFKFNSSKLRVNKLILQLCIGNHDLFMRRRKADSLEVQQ

[2] = target: T1, Merlin FERM domain (Merlin-FERM, …); assay: crystal structure
[3] = target: T1, Merlin FERM domain (Merlin-FERM, …); assay: ITC
S518D-Merlin = target: T2, S518D-Merlin (human, UniProt P35240 20-595, S518D); assay: ITC
T2 sequence (looked up): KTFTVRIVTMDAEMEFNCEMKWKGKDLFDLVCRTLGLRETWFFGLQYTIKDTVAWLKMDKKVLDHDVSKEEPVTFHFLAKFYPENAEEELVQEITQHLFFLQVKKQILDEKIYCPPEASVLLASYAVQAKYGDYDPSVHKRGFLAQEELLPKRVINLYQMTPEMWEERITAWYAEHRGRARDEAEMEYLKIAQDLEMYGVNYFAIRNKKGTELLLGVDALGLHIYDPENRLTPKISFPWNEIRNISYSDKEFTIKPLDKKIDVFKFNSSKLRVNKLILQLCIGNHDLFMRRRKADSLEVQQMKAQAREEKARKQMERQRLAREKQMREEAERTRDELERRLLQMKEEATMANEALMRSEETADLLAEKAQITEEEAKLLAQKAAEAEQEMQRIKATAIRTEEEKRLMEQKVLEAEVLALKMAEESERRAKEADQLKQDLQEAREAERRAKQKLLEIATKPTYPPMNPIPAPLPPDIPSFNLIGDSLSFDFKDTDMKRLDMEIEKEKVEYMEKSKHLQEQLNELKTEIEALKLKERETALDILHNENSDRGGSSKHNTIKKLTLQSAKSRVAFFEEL

[4] = target: entire C-terminal half of Merlin (human); assay: SEC
S518A-Merlin = target: T3, S518A-Merlin (human, UniProt P35240 20-595, S518A); assay: pull-down
T3 sequence (looked up): T2 sequence (looked up) with D499A

Chain of Moesin FERM domain (P26038 2-295): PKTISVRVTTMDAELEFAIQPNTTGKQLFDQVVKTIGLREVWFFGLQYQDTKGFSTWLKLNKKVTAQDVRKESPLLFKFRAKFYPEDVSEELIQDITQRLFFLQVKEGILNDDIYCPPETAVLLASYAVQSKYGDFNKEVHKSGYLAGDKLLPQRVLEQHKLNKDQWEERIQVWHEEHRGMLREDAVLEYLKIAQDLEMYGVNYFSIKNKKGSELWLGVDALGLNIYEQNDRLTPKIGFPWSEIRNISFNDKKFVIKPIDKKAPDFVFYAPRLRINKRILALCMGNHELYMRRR

Kd (Moesin FERM domain): 16 nM
Molecule: Moesin tail domain (domain or fragment)

Kd [1]: ~4000 nM
B1: Merlin-CTD-S518D (domain or fragment, human, UniProt P35240 507-595, looked up)
chain: FDFKDTDMKRLDMEIEKEKVEYMEKSKHLQEQLNELKTEIEALKLKERETALDILHNENSDRGGSSKHNTIKKLTLQSAKSRVAFFEEL

Kd [1]: ~3000 nM and ~4000 nM
B2: Merlin C-terminal tail domain (Merlin-CTD, residues 507-595) (domain or fragment, human, UniProt P35240 507-595, looked up)
chain: B1 chain with D12S

binding result [2]: binds
B3: Merlin-CTD bearing S518D/A585W substitutions (domain or fragment, human, UniProt P35240 507-595, looked up)
chain: B1 chain with A79W

Kd [3]: ~80 nM | binding result (S518D-Merlin): binds
B4: EBP50 C-terminal tail (EBP50-CT, residues 320-358) (domain or fragment, human, UniProt O14745 320-358, looked up)
chain: ILDFNISLAMAKERAHQKRSSKRAPQMDWSKKNELFSNL

stoichiometry N [4]: 1
B5: elongated α-helix-rich region of AMOT (residues 404-728 of AMOT-p130) (domain or fragment)
chain: ADPFAMVSRAQQMVEILSDENRNLRQELDGCYEKVARLQKVETEIQRVSEAYENLVKSSSKREALEKAMRNKLEGEIRRMHDFNRDLRDRLETANKQLAEKEYEGSEDTRKTISQLFAKHKENQREKEKLEAELATARSTNEDQRRHIEIRDQALSNAQAKVVKLEEELKKKQVYVDKVEKMQQALVQLQAACEKREQLEHRLRTRLERELESLRIQQRQGNSQPTNASEYNAAALMELLREKEERILALEADMTKWEQKYLEENVMRHFALDAAATVAAQRDTTVISHSPNTSYDTALEARIQKEEEEILMANKRCLDMEGRIK

binding result [2]: binds
B6: Lats1 FERM-binding domain (Lats1-FBD, residues 69-100) (domain or fragment, mouse, UniProt Q8BYR2 69-100, looked up)
chain: PKFGTHHKALQEIRNSLLPFANETSSSRSPSE

binding result (S518A-Merlin): binds
B7: GST-tagged Lats1-FBD (domain or fragment, mouse, UniProt Q8BYR2 69-100, looked up)
chain: B6 chain

Kd [3]: ~1400 nM
B8: N-terminus of Lats1 (Lats1-NT, residues 1-153) (domain or fragment, mouse, UniProt Q8BYR2 1-153, looked up)
chain: MKRGEKPEGYRQMRPKTFPASNYPGSSRQMLQEIRESLRNLSKPSDASKAEHNLNKMSTEDPRQVRNPPKFGTHHKALQEIRNSLLPFANETSSSRSPSEVNPQMFQDLQAAGFDEDMVIQALQKTNNRSIEAAVEFISKMSYQDPRREQMSA

binding result [2]: binds
B9: Lats2 FERM-binding domain (Lats2-FBD, residues 68-99) (domain or fragment, human, UniProt Q9NRM7 68-99, looked up)
chain: PKFGPYQKALREIRYSLLPFANESGTSAAAEV
